T1: NHS-Rhodamine labelled recombinant Tma17p (γ-subunit)
T1 sequence: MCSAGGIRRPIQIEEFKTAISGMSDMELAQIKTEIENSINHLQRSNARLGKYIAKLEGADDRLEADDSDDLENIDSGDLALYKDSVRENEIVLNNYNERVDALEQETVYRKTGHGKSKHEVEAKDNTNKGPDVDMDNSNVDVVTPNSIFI


Tests used:
[1] = test system: T1, NHS-Rhodamine labelled recombinant Tma17p (γ-subunit); test: titration of NHS-Rhodamine labelled γ-subunit against ΔTma17p-FAS, native agarose gel, fluorescence of FAS-bound Tma17p quantified
[2] = biological target: Saccharomyces cerevisiae type I fatty acid synthase (α6β6, 2.6 MDa) without the γ-subunit (Saccharomyces cerevisiae) (UniProt P19097); test: cell-based or functional assay
Chain of UniProt P19097 (P19097 whole entry, chain 1 of 2): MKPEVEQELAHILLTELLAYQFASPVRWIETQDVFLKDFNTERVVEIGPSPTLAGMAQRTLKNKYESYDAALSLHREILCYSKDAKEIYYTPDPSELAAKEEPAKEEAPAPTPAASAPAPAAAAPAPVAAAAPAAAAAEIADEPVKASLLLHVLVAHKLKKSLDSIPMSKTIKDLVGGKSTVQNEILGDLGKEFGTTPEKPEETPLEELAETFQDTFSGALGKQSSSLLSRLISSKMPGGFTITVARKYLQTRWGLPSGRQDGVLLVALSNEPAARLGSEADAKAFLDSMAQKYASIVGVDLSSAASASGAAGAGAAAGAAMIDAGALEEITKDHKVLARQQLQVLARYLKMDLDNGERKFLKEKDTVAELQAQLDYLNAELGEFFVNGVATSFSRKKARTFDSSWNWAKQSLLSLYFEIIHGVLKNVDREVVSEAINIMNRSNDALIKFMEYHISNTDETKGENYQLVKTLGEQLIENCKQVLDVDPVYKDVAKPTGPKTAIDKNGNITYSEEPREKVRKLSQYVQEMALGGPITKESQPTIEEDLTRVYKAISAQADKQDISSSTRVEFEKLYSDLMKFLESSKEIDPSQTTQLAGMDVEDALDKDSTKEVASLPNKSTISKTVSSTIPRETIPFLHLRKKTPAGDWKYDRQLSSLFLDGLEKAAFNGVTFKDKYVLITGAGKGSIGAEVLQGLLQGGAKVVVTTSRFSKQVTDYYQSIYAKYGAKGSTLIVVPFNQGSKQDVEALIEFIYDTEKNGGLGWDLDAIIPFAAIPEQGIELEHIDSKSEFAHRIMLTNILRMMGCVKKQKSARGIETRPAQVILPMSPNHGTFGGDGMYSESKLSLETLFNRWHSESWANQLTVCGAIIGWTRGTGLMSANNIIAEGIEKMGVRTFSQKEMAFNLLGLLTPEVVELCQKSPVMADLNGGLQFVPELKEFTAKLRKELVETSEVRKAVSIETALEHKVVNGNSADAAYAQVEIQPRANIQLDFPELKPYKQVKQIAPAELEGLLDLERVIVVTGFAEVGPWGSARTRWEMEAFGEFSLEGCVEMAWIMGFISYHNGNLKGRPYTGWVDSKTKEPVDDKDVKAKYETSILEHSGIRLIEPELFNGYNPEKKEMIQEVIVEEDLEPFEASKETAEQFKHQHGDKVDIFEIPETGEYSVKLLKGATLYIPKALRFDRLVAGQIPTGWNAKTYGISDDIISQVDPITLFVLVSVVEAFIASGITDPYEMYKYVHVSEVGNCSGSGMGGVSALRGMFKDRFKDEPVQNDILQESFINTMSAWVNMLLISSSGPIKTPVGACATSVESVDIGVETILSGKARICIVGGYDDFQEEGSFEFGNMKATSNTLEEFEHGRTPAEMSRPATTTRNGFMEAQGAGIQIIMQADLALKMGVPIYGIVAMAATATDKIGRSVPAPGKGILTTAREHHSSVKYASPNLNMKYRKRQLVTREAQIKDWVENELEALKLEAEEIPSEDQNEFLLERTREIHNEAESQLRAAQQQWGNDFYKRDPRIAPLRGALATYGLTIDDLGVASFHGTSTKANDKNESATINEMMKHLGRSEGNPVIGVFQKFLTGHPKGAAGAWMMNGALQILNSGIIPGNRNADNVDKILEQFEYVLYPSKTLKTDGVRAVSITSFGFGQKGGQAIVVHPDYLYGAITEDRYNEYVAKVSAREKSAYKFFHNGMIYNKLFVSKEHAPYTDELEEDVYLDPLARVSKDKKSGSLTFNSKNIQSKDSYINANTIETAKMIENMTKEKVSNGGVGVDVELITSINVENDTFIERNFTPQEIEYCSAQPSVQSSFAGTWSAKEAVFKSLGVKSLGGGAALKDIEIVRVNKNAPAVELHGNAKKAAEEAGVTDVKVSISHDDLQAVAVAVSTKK
Chain of UniProt P19097 (P07149 whole entry, chain 2 of 2, further chain): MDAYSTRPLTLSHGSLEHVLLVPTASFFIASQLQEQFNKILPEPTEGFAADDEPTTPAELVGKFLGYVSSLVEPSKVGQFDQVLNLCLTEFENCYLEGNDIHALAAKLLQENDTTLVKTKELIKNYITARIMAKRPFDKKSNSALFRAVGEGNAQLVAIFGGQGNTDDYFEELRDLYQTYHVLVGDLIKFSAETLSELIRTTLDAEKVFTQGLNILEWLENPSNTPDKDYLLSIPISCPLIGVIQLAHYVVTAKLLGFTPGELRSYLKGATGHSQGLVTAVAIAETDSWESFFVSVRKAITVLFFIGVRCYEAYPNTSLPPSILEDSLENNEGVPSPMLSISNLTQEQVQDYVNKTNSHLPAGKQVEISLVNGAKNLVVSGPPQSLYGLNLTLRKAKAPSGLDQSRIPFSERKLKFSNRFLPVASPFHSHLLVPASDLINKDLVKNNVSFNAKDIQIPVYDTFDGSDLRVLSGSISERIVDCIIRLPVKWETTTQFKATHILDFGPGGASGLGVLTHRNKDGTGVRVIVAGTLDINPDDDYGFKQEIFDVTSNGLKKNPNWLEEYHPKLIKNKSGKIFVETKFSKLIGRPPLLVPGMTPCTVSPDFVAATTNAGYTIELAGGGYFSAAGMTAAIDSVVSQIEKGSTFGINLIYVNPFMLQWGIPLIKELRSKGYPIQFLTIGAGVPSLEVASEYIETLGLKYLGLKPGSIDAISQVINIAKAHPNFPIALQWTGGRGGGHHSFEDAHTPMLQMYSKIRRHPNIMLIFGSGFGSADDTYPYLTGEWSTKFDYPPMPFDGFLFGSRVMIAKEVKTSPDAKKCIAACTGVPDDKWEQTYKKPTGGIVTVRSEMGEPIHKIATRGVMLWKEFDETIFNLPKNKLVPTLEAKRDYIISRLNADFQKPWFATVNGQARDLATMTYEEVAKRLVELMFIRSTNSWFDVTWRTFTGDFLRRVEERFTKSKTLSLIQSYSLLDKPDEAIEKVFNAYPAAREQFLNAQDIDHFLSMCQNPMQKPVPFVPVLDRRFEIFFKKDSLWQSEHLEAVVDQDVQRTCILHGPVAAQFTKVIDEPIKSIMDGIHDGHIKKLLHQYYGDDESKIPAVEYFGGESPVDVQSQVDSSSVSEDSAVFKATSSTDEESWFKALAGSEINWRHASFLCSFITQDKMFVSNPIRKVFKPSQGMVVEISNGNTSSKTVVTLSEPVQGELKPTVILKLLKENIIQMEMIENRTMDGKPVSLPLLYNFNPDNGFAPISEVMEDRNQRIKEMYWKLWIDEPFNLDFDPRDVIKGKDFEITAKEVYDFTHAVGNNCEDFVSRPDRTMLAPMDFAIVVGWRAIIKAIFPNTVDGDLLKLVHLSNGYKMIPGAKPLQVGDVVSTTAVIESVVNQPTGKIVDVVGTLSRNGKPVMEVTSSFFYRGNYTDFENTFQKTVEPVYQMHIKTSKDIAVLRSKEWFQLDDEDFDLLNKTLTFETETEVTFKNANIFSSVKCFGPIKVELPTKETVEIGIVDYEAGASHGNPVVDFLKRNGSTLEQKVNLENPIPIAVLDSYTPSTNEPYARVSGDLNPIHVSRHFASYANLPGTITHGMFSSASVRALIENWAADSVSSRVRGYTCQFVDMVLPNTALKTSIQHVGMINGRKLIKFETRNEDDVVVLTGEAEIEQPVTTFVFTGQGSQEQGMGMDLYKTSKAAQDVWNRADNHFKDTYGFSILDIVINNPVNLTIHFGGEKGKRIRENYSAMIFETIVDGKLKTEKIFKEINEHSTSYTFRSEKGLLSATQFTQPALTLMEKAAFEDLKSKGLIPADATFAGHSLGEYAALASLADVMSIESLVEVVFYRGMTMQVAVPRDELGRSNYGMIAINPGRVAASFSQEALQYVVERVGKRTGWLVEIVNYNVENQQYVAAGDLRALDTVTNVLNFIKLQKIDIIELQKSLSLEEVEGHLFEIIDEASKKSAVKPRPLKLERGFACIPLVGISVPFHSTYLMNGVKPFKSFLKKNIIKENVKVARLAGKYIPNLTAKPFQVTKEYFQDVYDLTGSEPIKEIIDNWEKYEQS

Row | Molecule | K0.5 (Hill equation) [1] | KMapp for NADPH, steady-state kinetics of the FAS holoenzyme (saturating γ-subunit) [2] | fold decrease of affinity for acetyl-CoA, steady-state kinetics [2] | fold decrease of affinity for malonyl-CoA, steady-state kinetics [2] | fold reduction in the binding affinity for NADPH, steady-state kinetics [2] | percent of selected cryo-EM particles in the rotated state, at a 6-fold excess of the γ-subunit [2] | percent of selected cryo-EM particles in the rotated state, at a 12-fold molar excess of the γ-subunit [2]
1 | Saccharomyces cerevisiae type I fatty acid synthase (α6β6, 2.6 MDa) without the γ-subunit | K0.5=2.1±0.2 µM |  |  |  |  |  | 
2 | Tma17p, the gamma-subunit of the yeast fatty acid synthase (TMA 17 molecule from Saccharomyces cerevisiae) (protein) MCSAGGIRRPIQIEEFKTAISGMSDMELAQIKTEIENSINHLQRSNARLGKYIAKLEGADDRLEADDSDDLENIDSGDLALYKDSVRENEIVLNNYNERVDALEQETVYRKTGHGKSKHEVEAKDNTNKGPDVDMDNSNVDVVTPNSIFI |  | 155 µM | 2 fold | 4 fold | 15 fold | 88% | 95%

From patent US20220154181A1
